Substitutions are numbered along the chain they refer to. Names and notes keep the numbering of the source.
T1: cynomolgus monkey CD96 on cynomolgus monkey PBMCs (cynomolgus monkey, UniProt A0A2K5TWV6 22-569)
T1 construct: whole, on cells
T1 sequence: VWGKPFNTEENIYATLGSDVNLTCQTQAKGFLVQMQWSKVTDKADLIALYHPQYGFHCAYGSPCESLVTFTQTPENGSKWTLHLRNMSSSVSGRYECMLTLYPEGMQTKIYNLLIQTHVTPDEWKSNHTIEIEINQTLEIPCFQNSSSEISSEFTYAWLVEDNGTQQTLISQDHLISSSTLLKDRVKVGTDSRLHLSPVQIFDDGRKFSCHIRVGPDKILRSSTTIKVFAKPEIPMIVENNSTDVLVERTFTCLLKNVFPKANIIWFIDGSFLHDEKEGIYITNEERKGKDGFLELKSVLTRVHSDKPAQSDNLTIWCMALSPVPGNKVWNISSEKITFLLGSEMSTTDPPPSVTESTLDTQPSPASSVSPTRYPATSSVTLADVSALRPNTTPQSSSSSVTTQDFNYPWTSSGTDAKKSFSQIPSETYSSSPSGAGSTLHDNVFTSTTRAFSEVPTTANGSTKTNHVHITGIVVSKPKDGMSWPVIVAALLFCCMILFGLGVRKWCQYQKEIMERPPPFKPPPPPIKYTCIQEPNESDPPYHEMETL

T2: recombinant hu-CD96 (M1-M503-polyHis) (human, UniProt P40200 22-519)
T2 construct: also called hu-CD96-his
T2 sequence: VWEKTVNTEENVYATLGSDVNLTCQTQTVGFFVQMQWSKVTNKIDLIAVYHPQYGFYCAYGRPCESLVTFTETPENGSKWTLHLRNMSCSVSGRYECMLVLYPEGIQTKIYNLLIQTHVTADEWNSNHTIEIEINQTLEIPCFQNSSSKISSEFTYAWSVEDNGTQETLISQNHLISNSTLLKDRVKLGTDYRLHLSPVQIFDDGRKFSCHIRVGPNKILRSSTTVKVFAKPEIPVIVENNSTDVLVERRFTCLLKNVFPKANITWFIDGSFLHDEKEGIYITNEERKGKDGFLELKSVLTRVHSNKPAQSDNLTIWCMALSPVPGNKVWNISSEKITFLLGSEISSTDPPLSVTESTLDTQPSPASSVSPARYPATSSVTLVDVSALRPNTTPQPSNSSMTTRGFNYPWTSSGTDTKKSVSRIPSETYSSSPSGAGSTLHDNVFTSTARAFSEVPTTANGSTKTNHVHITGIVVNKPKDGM

B1: h10G1 IgG (humanized 10G1) (antibody, V domains shown)
VH: EIQLVQSGSELKKPGASVKVSCKASGYPFTTYGMSWVRQAPGQGLEWMGWINTDSGVPTYADDFKGRFVFSLDTSVSTAYLQISSLKAEDTAVYFCARNIYYGWGNFDYWGQGTLVTVSS
VL: EIVMTQSPDFQSVTPKEKVTITCRASQDIYRNLHWYQQKPDQTPKLLIKHASDSISGIPSRFSGSGSGTDFTLTINSLEAEDAAAYYCLQGYSMPYTFGGGTKVEIKG
notes: human IgG1 N297G
B2: mAb1.v7.NGS9 IgG (antibody, V domains shown)
VH: EVQLVQSGAEVKKPGASVKVSCKASGFTFTNNFMHWVRQAPGQGLEWIGMIHANSGITNINEKFKNRVTMTTDTSTSTAYMELRSLRSEDTAVYYCRSDGVYEGYFDYWGQGTLVTVSS
VL: DIQLTQSPSSLSASVGDRVTITCKASQNVGTAIVWYQQKPGKAPKVLIYSASTRYTGVPSRFSGSGSGTDFTLTISSLQPEDFATYYCQQYSSSPLTFGQGTKVEIKG
notes: human IgG1 N297G
B3: mAb1.v7.NGS11 IgG (antibody, V domains shown)
VH: B2 VH with M50F
VL: B2 VL
notes: human IgG1 N297G
B4: mAb1.v7.NGS10 IgG (antibody, V domains shown)
VH: B2 VH with M50F, V101I
VL: B2 VL
notes: human IgG1 N297G
B5: 10G1 (clone 10G1.3G8), purified hybridoma antibody (antibody, V domains shown)
VH: QIQLVQSGPELKKPGETVKISCKASGYPFTTYGMSWVKQAPGKGLKWMGWINTDSGVPTYADDFKGRFAFSLETSANTAYLQINSLKNEDAATYFCARNIYYGWGNFDYWGQGTILTVSS
VL: DILMTQSPTTLSVTPGETVSLSCRASQDIYRNLHWYQQKSQGTPRLLIKHASDSISGIPSRFTGSGSGTDFTLSINSVKPEDEGIYYCLQGYSMPYTFGGGTKLEIK
notes: murine hybridoma IgG
B6: 7E5, purified hybridoma antibody (antibody, V domains shown)
VH: QVQLKESGPGLVAPSQSLSIICTVSGFSLTNYGIHWIRQPPGKGLEWLGIIWAGGSTNYNSALMSRLTISKDNSKSQVFLKMNSLQTNDTAIYYCARVSMMGFAYWGQGTLVTVSA
VL: QAVVTQESALTTSPGETVTLTCRSSTGAVTTSNYANWVQEKPDHLFTGLIGGTNNRAPGVPARFSGSLIGDKAALTITGAQTEDEAIYFCSLWYGSHWVFGGGTKLTVL
notes: murine hybridoma IgG
B7: 9H4, purified hybridoma antibody (antibody, V domains shown)
VH: EVQLLETGGGLVKSGGSLKLSCAASGFTFSDYYMYWVRQTPEKRLEWVAAISDDGTYTYYPDSVKGRFTISRDNANNYLYLQMSSLKSEDTAIYYCAKAGSYDYFDVWGAGTTVTVSS
VL: DIVLTQSPASLAVSLGQRAIISCKASQSVTFADTGLMHWYQQKPGQQPKLLIYRASNLEVGVPTRFSGSGSGTDFTLNIHPVEEEDVATYYCQQSREYPWTFGGGTKLEIK
notes: murine hybridoma IgG

Legend:
[1] = target: T1, cynomolgus monkey CD96 on cynomolgus …; test: FACS, Ab 0.00512 nM
Description: The ability of the anti-CD96 antibodies to bind primary immune cells from human and cynomolgus monkey with lower level of receptor expression was measured. Human PBMCs (StemCell Technologies, catalog #70025) and cynomolgus monkey PBMCs (Primate Biologicals, catalog #CM-MC) were incubated with human TruStain FcX (Biolegend, catalog #422302) for 10 minutes at 4° C., followed by incubation with an anti-CD96 antibody for 20 minutes at 4° C. Cells were washed and the anti-CD96 antibody binding was detected by incubation with anti-mouse IgG-PE (Thermo Fisher, catalog #M30204) or anti-human IgG (Fab) 2-PE (Thermo Fisher, catalog #H10104) for 20 minutes at 4° C. Cells were washed, and immune subtypes were labeled with anti-CD3 (BD, catalog #557705), anti-CD4 (Biolegend, catalog #317424) and anti-CD8 (BD, catalog #557760) for 20 minutes at 4° C. Cell binding was analyzed by flow cytometry with a CytoFLEX (Beckman Coulter). Binding curves were calculated as a percentage of cells positive for bound antibody in the cell type of interest.

[2] = target: T2, recombinant hu-CD96 (M1-M503-polyHis); test: ELISA, blocks hu-CD96-his binding to coated CD155-hFc
Description: CD96 binding of purified hybridoma antibodies: The hu-CD96 and cy-CD96 antigen binding ELISA was performed on the purified hybridoma antibodies. Briefly, 96-well MAXISORP® flat bottom plates (Thermo Fisher Scientific, Waltham, MA; Cat #439454) were coated overnight at 4° C. with 0.5 µg/mL of hu-CD96D1 D3-hFc and cynomolgus monkey CD96D1 D3-hFc in PBS. After removing the coating solution, unspecific binding was blocked by PBS containing 1% bovine serum albumin (blocking buffer) and incubation at room temperature for one hour. Plates were then washed three times with PBS and 0.05% TWEEN®-20 (wash buffer). Serial dilution of purified antibodies in PBS containing 0.5% BSA and 0.05% Tween 20 (ELISA buffer) was added to individual wells followed by incubation at room temperature for one hour with agitation. Plates were washed three times with wash buffer, then 100 µL/well of anti-mouse IgG-HRP (Thermo Fisher Scientific, Waltham, MA; Cat #626520) in ELISA buffer was added. […] Enzymatic color development was stopped with 50 µL/well of TMB stop solution (VWR/Avantor, Radnor, PA, USA; Cat #95059-200). Plates were analyzed with a SpectraMax i3X plate reader (Molecular Devices LLC, San Jose, CA, USA) at 450 nm.
CD155 receptor blocking of purified hybridoma antibodies: Human CD155 blocking ELISA was performed on purified hybridoma antibodies following the same protocol as described for CD96 (above), except that serial dilution of purified antibodies 50 µL/well (starting at 1 µM, 1:5 dilution) in assay buffer was added into the reaction.

Binder | % positive [1] [%] | IC50 [2] [nM]
B1 | 7.4 | –
B2 | 7.1 | –
B3 | 10.4 | –
B4 | 9.5 | –
B5 | – | 2.59
B6 | – | 2.15
B7 | – | 2.23

Reference: patent publication US12365732 (23ANDME, dated 2025)
